Drawing on publication doi:10.1101/2020.02.08.939488, this text covers Ebp1 concentration and Kd for one substance.

For the assay, the target named is rabbit reticulocyte lysate 60S ribosomal subunit, purified (rabbit) (UniProt G1SV32). The assay can be described thus: co-sedimentation.

A word on the Kd: it is the free concentration of one partner at which half of the binding sites on the other are occupied at equilibrium, for simple one-to-one binding. High values mean weaker binding, low ones tighter binding. In turn, “recombinant full-length Ebp1 with a N-terminal histidine tag (Ebp1-His) (from UniProt P50580 1-394) (natural protein)” yielded an Ebp1 concentration at saturated binding (100 nM 60S) of 200 nM and a Kd of 124 nM.
